For experiment [1], the target named is T1, human CD40 (human, UniProt P25942 21-277).
T1 construct: whole, on cells; also called hCD40; TNFRSF5
The experiment can be described thus: FACS, Raji cells. The procedure:
(§1) The cells were incubated at 4° C. for 1 hours in the dark. After the incubation, the cells were rinsed twice by adding pre-chilled PBS at 100 μL/well, and centrifuged at 500 g at 4° C. for 5 minutes, and the supernatant was discarded. Then, a fluorescent secondary antibody (goat anti-human IgG (H+L) secondary antibody, Alexa Fluor® 488 conjugate, Invitrogen, #A11013, 1:1000 dilution) was added at 100 μL/well, and the cells were incubated at 4° C. for 30 minutes in the dark. The cells were washed twice with pre-chilled PBS at 200 μL/well, and centrifuged at 500 g at 4° C. for 5 minutes, and the supernatant was discarded. Finally, the cells were resuspended in pre-chilled PBS at 200 μL/well. The fluorescence signal values were read using a BD FACS CANTOII flow cytometer or ACEA NovoCyte flow cytometer, and the data were processed and analyzed using FlowJo v10 software (FlowJo, LLC).

The target in experiment [2] is T2, human PD-L1 (human, UniProt Q9NZQ7 19-290).
T2 construct: whole, on cells; also called hPD-L1; CD274
T2 sequence (Q9NZQ7 19-290): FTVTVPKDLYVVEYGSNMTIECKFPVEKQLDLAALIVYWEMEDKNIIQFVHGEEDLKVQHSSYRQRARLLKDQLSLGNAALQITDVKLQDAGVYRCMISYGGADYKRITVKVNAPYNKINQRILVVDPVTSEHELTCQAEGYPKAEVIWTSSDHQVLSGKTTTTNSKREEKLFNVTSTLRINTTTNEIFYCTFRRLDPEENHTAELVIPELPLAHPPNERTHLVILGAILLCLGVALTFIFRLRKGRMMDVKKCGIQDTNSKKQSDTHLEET
The experiment is described as follows: FACS, NCI-H226 cells. The procedure: (§2) Specifically, the cells expressing PD-L1 were digested and resuspended in PBS buffer containing 2% BSA. The cells were adjusted to a cell density of 1×10⁶ cells/mL, respectively. The cells were seeded in a 96-well V-bottom plate (Corning, #3894) at 100 μL/well, and the antibody to be tested at 2×final concentration with 4-fold concentration gradient dilution was then added at 100 μL/well. The cells were incubated at 4° C. for 2 hours in the dark. After the incubation, the cells were rinsed twice by adding pre-chilled PBS containing 2% BSA at 100 μL/well, and centrifuged at 500 g at 4° C. for 5 minutes, and the supernatant was discarded. […] The cells were washed twice by adding pre-chilled PBS containing 2% BSA at 100 µL/well, and centrifuged at 500 g at 4° C. for 5 minutes, and the supernatant was discarded. Finally, the cells were resuspended in pre-chilled PBS buffer containing 2% BSA at 200 μL/well. The fluorescence signal values were read using a BD FACS CANTOII flow cytometer or ACEA NovoCyte flow cytometer, and the data were processed and analyzed using FlowJo v10 software (FlowJo, LLC).

Experiment [3] concerns the target T2, human PD-L1. The experiment can be described thus: cell-based or functional assay.
In experiment [4] the target is T1, human CD40. The experiment can be described thus: cell-based or functional assay.
Experiment [5] deals with T1, human CD40. The experiment is described as follows: FACS, CHO-K1/hCD40 cells. The procedure: as §1
Experiment [6] deals with T2, human PD-L1. The experiment can be described thus: FACS, CHO-K1/hPD-L1 cells. The procedure:
as §2

The target in experiment [7] is T3, cynomolgus monkey CD40 (cynomolgus monkey).
T3 construct: whole, on cells; also called cyCD40
The experiment is described as follows: FACS, CHO-K1/cyCD40 cells. The procedure: as §1

The target in experiment [8] is T4, cynomolgus monkey PD-L1 (cynomolgus monkey).
T4 construct: whole, on cells; also called cyPD-L1
The experiment is described as follows: FACS, CHO-K1/cyPD-L1 cells. The procedure:
as §2

T1 sequence (P25942 21-277): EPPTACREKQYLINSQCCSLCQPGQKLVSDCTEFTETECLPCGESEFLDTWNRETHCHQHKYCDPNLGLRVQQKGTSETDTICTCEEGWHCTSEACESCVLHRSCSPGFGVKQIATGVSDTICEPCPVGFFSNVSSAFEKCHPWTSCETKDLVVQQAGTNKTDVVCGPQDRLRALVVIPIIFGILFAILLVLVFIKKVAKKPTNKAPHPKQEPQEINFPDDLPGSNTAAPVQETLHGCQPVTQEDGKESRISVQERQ

B1: PR007276 (bispecific antibody, human IgG1, kappa)
heavy: QVQLVESGGGVVQPGMSLRLSCAASGFDFSSYGMYWVRQAPGKGQEWVASIRYTGTEKHYADSVKGRFTISRDNSKNTLYLEMNSLRVEDTAVYYCAKNRALFGVIPDDSDIRGQGTMVTVSSGGGGSQVQLVQSGAEVKKPGASVKVSCKASGYTFAGYYMYWVRQAPGQGLEWMGWINPDSGAPTYAQKFQGRVTMTRDTSISTAYMELSRLRSDDTAVYYCAREKIYYGSGNYYPSFDYWGQGTLVTVSSASTKGPSVFPLAPSSKSTSGGTAALGCLVKDYFPEPVTVSWNSGALTSGVHTFPAVLQSSGLYSLSSVVTVPSSSLGTQTYICNVNHKPSNTKVDKKVEPKSCDKTHTCPPCPAPEAAGAPSVFLFPPKPKDTLMISRTPEVTCVVVDVSHEDPEVKFNWYVDGVEVHNAKTKPREEQYNSTYRVVSVLTVLHQDWLNGKEYKCKVSNKALPAPIEKTISKAKGQPREPQVYTLPPSREEMTKNQVSLTCLVKGFYPSDIAVEWESNGQPENNYKTTPPVLDSDGSFFLYSKLTVDKSRWQQGNVFSCSVMHEALHNHYTQKSLSLSPGK
light: DIQLTQSPSFLSASVGDRVTITCRASQGISSYLAWYQQKPGKAPKLLIYAASTLQSGVPSRFSGSGSGTEFTLTISSLQPEDFATYYCQQLASYPWTFGQGTKVEIKRTVAAPSVFIFPPSDEQLKSGTASVVCLLNNFYPREAKVQWKVDNALQSGNSQESVTEQDSKDSTYSLSSTLTLSKADYEKHKVYACEVTHQGLSSPVTKSFNRGEC
notes: VH of PR006248 (PD-L1) - GS_5 - heavy chain of CD40 IgG PR006495; human IgG1 L234A/L235A/G237A; also called PD-L1×CD40
Consider B1, for which, in experiment [1], the EC50 is 1.45 nM and the “Maximum MFI” value turned out to be 7570 MFI. Moreover, in experiment [2], a half-maximal response (EC50) required 0.569 nM and the “Maximum MFI” value was 927 MFI. Besides, in experiment [3], the “EC50, Jurkat-NFAT-hPD1 reporter” value stood at 0.273 nM and the “Maximum (RLU), Jurkat-NFAT-hPD1 reporter” value turned out to be 4060 RLU. In experiment [4], the “EC50, HEK293-hCD40-NFκB reporter, + CHO-K1” value is 0.22 nM; the “EC50, HEK293-hCD40-NFκB reporter, + CHO-K1/hPD-L1” value amounted to 0.08 nM; the “Maximum (RLU), HEK293-hCD40-NFκB reporter, + CHO-K1” value was determined as 239000 RLU; the “Maximum (RLU), HEK293-hCD40-NFκB reporter, + CHO-K1/hPD-L1” value came out at 379000 RLU. Besides, in experiment [5], the EC50 was 2.35 nM and the “Maximum MFI” value worked out at 14300 MFI. Moreover, in experiment [6], the EC50 stood at 1.18 nM and the “Maximum MFI” value was determined as 19700 MFI. In experiment [7], the EC50 stood at 2.62 nM and the “Maximum MFI” value is 57000 MFI. Also, in experiment [8], the response was half-maximal at 0.656 nM (EC50) and the “Maximum MFI” value worked out at 4570 MFI.

B2: PR007620 (bispecific antibody, human IgG1, kappa)
heavy: QVQLVESGGGVVQPGMSLRLSCAASGFDFSSYGMYWVRQAPGKGQEWVASIRYTGTEKHYADSVKGRFTISRDNSKNTLYLEMNSLRVEDTAVYYCAKNRALFGVIPDDSDIRGQGTMVTVSSGGSQVQLVQSGAEVKKPGASVKVSCKASGYTFAGYYMYWVRQAPGQGLEWMGWINPDSGAPTYAQKFQGRVTMTRDTSISTAYMELSRLRSDDTAVYYCAREKIYYGSGNYYPSFDYWGQGTLVTVSSASTKGPSVFPLAPSSKSTSGGTAALGCLVKDYFPEPVTVSWNSGALTSGVHTFPAVLQSSGLYSLSSVVTVPSSSLGTQTYICNVNHKPSNTKVDKKVEPKSCDKTHTCPPCPAPEAAGAPSVFLFPPKPKDTLMISRTPEVTCVVVDVSHEDPEVKFNWYVDGVEVHNAKTKPREEQYNSTYRVVSVLTVLHQDWLNGKEYKCKVSNKALPAPIEKTISKAKGQPREPQVYTLPPSREEMTKNQVSLTCLVKGFYPSDIAVEWESNGQPENNYKTTPPVLDSDGSFFLYSKLTVDKSRWQQGNVFSCSVMHEALHNHYTQKSLSLSPGK
light: DIQLTQSPSFLSASVGDRVTITCRASQGISSYLAWYQQKPGKAPKLLIYAASTLQSGVPSRFSGSGSGTEFTLTISSLQPEDFATYYCQQLVSYPWTFGQGTKVEIKRTVAAPSVFIFPPSDEQLKSGTASVVCLLNNFYPREAKVQWKVDNALQSGNSQESVTEQDSKDSTYSLSSTLTLSKADYEKHKVYACEVTHQGLSSPVTKSFNRGEC
notes: VH of PR006248 (PD-L1) - GS_3 - heavy chain of CD40 IgG PR006504; human IgG1 L234A/L235A/G237A; also called PD-L1×CD40
Turning to B2, the EC50 in experiment [1] was determined as 1.32 nM; in experiment [2] it was 0.281 nM; in experiment [5], 2.2 nM; in experiment [6], 1.15 nM; in experiment [7], 2.48 nM; in experiment [8], 0.757 nM. The “Maximum MFI” value in experiment [1] is 6710 MFI; in experiment [2], 1030 MFI; in experiment [5], 15300 MFI; in experiment [6] it was 20300 MFI; in experiment [7] it was 68000 MFI; in experiment [8], 4840 MFI. The “EC50, Jurkat-NFAT-hPD1 reporter” value in experiment [3] was determined as 0.319 nM. In addition, the “Maximum (RLU), Jurkat-NFAT-hPD1 reporter” value in experiment [3] was found to be 3740 RLU.

B3: PR006919 (bispecific antibody, human IgG1, kappa)
heavy: QVQLVESGGGVVQPGMSLRLSCAASGFDFSSYGMYWVRQAPGKGQEWVASIRYTGTEKHYADSVKGRFTISRDNSKNTLYLEMNSLRVEDTAVYYCAKNRAIFGVIPDDSDIRGQGTMVTVSSGGGGSQVQLVQSGAEVKKPGASVKVSCKASGYTFAGYYMYWVRQAPGQGLEWMGWINPDSGAPTYAQKFQGRVTMTRDTSISTAYMELSRLRSDDTAVYYCAREKIYYGSGNYYPSFDYWGQGTLVTVSSASTKGPSVFPLAPSSKSTSGGTAALGCLVKDYFPEPVTVSWNSGALTSGVHTFPAVLQSSGLYSLSSVVTVPSSSLGTQTYICNVNHKPSNTKVDKKVEPKSCDKTHTCPPCPAPEAAGAPSVFLFPPKPKDTLMISRTPEVTCVVVDVSHEDPEVKFNWYVDGVEVHNAKTKPREEQYNSTYRVVSVLTVLHQDWLNGKEYKCKVSNKALPAPIEKTISKAKGQPREPQVYTLPPSREEMTKNQVSLTCLVKGFYPSDIAVEWESNGQPENNYKTTPPVLDSDGSFFLYSKLTVDKSRWQQGNVFSCSVMHEALHNHYTQKSLSLSPGK
light: DIQLTQSPSFLSASVGDRVTITCRASQGISSYLAWYQQKPGKAPKLLIYAASTLQSGVPSRFSGSGSGTEFTLTISSLQPEDFATYYCQQLFSYPWTFGQGTKVEIKRTVAAPSVFIFPPSDEQLKSGTASVVCLLNNFYPREAKVQWKVDNALQSGNSQESVTEQDSKDSTYSLSSTLTLSKADYEKHKVYACEVTHQGLSSPVTKSFNRGEC
notes: VH of PR006246 (PD-L1) - GS_5 - heavy chain of CD40 IgG PR006496; human IgG1 L234A/L235A/G237A; also called PD-L1×CD40
As to B3, in experiment [1], a half-maximal response (EC50) required 1.24 nM and the “Maximum MFI” value is 7360 MFI. In addition, in experiment [2], the concentration giving a half-maximal response (EC50) stood at 0.389 nM and the “Maximum MFI” value came to 870 MFI. Besides, in experiment [3], the “EC50, Jurkat-NFAT-hPD1 reporter” value came out at 0.359 nM and the “Maximum (RLU), Jurkat-NFAT-hPD1 reporter” value is 4920 RLU. Moreover, in experiment [4], the “EC50, HEK293-hCD40-NFκB reporter, + CHO-K1” value came to 0.144 nM; the “EC50, HEK293-hCD40-NFκB reporter, + CHO-K1/hPD-L1” value worked out at 0.0106 nM; the “Maximum (RLU), HEK293-hCD40-NFκB reporter, + CHO-K1” value stood at 24500 RLU; the “Maximum (RLU), HEK293-hCD40-NFκB reporter, + CHO-K1/hPD-L1” value was 31400 RLU. Further, in experiment [5], it took 2.53 nM to reach a half-maximal effect (EC50) and the “Maximum MFI” value was determined as 18900 MFI. Further, in experiment [6], a half-maximal response (EC50) required 0.96 nM and the “Maximum MFI” value came out at 19600 MFI. Further, in experiment [7], it took 3.37 nM to reach a half-maximal effect (EC50) and the “Maximum MFI” value is 76200 MFI. Further, in experiment [8], the midpoint of the response, the EC50, lay at 0.622 nM and the “Maximum MFI” value amounted to 4540 MFI.

The values above are taken from patent US20250215089A1 (HARBOUR BIOMED SHANGHAI, published 2025).
